# In article PMC10806857:
# Read-outs that look alike come from different tables or passages of the source.
# Columns and labels:
# Assay in all cases: EMSA
# STK19 3KA = STK19 3KA (Homo sapiens, UniProt P49842 1-254, K186A;K190A;K201A)
# STK19 25-C = STK19 25-C (Homo sapiens, UniProt P49842 25-254)
# [1] = molecular target: T1, STK19 (TWH19) WT full-length (Homo sapiens, UniProt P49842 1-254)
# [2] = molecular target: T1, STK19 (TWH19) WT full-length; remark: listed apart in the source
# [3] = molecular target: T1, STK19 (TWH19) WT full-length; remark: listed apart in the source
# T1 sequence (P49842 whole entry): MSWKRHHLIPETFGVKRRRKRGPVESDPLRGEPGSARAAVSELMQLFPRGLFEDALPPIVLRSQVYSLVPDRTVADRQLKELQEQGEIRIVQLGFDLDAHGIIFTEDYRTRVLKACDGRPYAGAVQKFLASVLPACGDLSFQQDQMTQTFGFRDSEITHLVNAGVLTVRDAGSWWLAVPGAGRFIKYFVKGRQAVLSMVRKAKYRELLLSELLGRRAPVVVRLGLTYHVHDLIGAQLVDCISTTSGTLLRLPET
# Chain of STK19 3KA (P49842 whole entry K186A/K190A/K201A): as the sequence (P49842 whole entry) above, with K186A, K190A, K201A counted along it
# Chain of STK19 25-C (P49842 25-254): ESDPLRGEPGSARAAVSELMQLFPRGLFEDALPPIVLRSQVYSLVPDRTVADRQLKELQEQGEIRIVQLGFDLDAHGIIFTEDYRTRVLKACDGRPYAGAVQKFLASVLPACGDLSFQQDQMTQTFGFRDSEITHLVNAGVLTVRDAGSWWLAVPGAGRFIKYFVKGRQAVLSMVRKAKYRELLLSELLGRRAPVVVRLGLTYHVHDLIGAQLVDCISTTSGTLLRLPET
binder,measurement,setting,value
DNA1 (dsDNA) DNA 1: CTGTACTTCCAGGGAATGGAAAGCGACCCTCTGCC DNA 2: GGCAGAGGGTCGCTTTCCATTCCCTGGAAGTACAG,binding result,STK19 3KA,no binding
same,Kd,STK19 25-C,3.8 µM
"DNA1 UVB-irradiated (dsDNA, UVB irradiated, lesions undefined) DNA 1: CTGTACTTCCAGGGAATGGAAAGCGACCCTCTGCC DNA 2: GGCAGAGGGTCGCTTTCCATTCCCTGGAAGTACAG",binding result,[1],binds
RNA-30 bp-AT (dsRNA) RNA 1: AAAAAAAAAAAAAAAAAAAAAAAAAAAAAA RNA 2: UUUUUUUUUUUUUUUUUUUUUUUUUUUUUU,binding result,[2],binds
DNA-30 bp-AT (dsDNA) DNA 1: AAAAAAAAAAAAAAAAAAAAAAAAAAAAAA DNA 2: TTTTTTTTTTTTTTTTTTTTTTTTTTTTTT,binding result,[3],binds
